According to patent US20200277385A1 (LABORATOIRE FRANCAIS DU FRACTIONNEMENT ET DES …, published 2020):
Numbering of substitutions follows the chain as printed.

Tests used:
CD303 ectodomain = molecular target: T1, CD303 ectodomain (human, UniProt Q8WTT0 45-213); experiment: ELISA on coated CD303 ectodomain, 5 ng/mL antibody
T1 construct: also called ectodomain of the human CD303 antigen
T1 sequence: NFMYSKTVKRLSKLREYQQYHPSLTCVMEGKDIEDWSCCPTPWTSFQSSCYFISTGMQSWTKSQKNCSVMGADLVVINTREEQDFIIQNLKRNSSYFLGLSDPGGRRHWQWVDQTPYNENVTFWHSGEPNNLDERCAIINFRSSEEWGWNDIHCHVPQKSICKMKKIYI
Method: This technique, which uses a colorimetric approach, makes it possible to detect and visualize antigen-antibody interactions. The principle of ELISA is, first, to coat each well of a MaxiSorp plate with 10 ng of the antigen, in this case the CD303 ectodomain. The latter was purchased from the supplier Mybiosource. Second, the various antibodies produced, contained in the supernatant, are all diluted to the same concentration, and contacted with the antigen to allow them to bind. A third step consists in adding the secondary antibodies, HRP-conjugated anti-human antibody, necessary for amplified detection of the antigen-binding of the anti-CD303 antibodies. Lastly, detection is carried out using a solution containing the substrate for the enzyme (3,3′,5,5′-tetramethylbenzidine, or TMB). The appearance of coloring of the substrate indicates the formation of the antigen-antibody complex. The intensity of this coloring is proportional to the amount of enzyme present and thus to the amount of antibody tested bound to the antigen. The reaction is stopped by adding H₂SO₄ (acid). These colors are read using a spectrophotometer at a wavelength of 450 nm.
A concentration of 5 ng/mL is used to classify the humanized antibodies (FIG. 10).

[1] = molecular target: T2, human CD303 antigen expressed on cells (human, UniProt Q8WTT0 1-213); experiment: cell-based or functional assay
T2 sequence: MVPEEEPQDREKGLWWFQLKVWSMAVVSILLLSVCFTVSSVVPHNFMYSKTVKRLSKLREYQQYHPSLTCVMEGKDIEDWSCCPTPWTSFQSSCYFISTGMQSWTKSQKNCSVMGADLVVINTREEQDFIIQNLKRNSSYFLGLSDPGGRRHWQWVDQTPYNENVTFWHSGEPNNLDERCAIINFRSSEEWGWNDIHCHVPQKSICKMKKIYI

[2] = molecular target: T2, human CD303 antigen expressed on cells; experiment: flow cytometry on CAL-1 cells
Method: (§1) The CD303-expressing cells and the antibodies are prepared in diluent (PBS+1% FCS). 1·10⁵ cells are incubated at 4° C. for 30 minutes with 100 μL of antibody (anti-CD303 or negative control) at various concentrations (0-40 μg/mL, final concentration).
(§2) After washing with the diluent, the antibodies are visualized by addition of a phycoerythrin (PE)-coupled goat anti-mouse IgG F(ab′)₂ fragment (100 μL diluted to 1:100 in the diluent) for 45 minutes at 4° C. The cells are then washed and analyzed by flow cytometry (FC500, Beckman Coulter).

[3] = molecular target: T2, human CD303 antigen expressed on cells; experiment: flow cytometry on Fcγ chain-CD303 Jurkat cells
Method: as §1, §2

FcγRIIIa (CD16a) [4] = molecular target: T3, FcγRIIIa (CD16a) (UniProt P08637 17-254, limits assumed); experiment: competition with 3G8-PE for CD16 on NK cells, flow cytometry
T3 construct: whole, on cells; also called Fcγ receptor III

[5] = molecular target: T2, human CD303 antigen expressed on cells; experiment: cell-based or functional assay; remark: listed apart in the source
[6] = molecular target: T2, human CD303 antigen expressed on cells; experiment: flow cytometry on CAL-1 cells, 0.1 µg/mL, supernatant
Method: The line used to carry out this technique, CAL-1, is a leukemic cell line of plasmacytoid dendritic cells obtained from a BPDCN patient. The antibodies produced were tested in supernatant, but also in forms purified by affinity chromatography with protein A-sepharose (not elaborated upon herein).
For cell staining, the cells and the antibodies are prediluted with PBS/1% FCS. In a 100 μL reaction volume, 1·10⁵ cells are incubated at 4° C. for 30 minutes with the anti-CD303 antibodies to be tested, at two concentrations: 0.1 μg/mL or 1 μg/mL. This incubation is followed with several washings. The cell/antibody complexes thus formed are then contacted for 30 minutes at 4° C. with the secondary antibody diluted 1:50, an anti-human IgG Fc F(ab′)₂ coupled to a fluorochrome, phycoerythrin. […] Various negative controls are used to eliminate possible nonspecific binding, such as: the cells alone or directly in contact with the secondary antibody, or replacing the antibody tested with an irrelevant chimeric antibody (factor VIII anti-idiotype).

FcγRIIIa (CD16a) [7] = molecular target: T3, FcγRIIIa (CD16a); experiment: cell-based or functional assay

T3 sequence (P08637 17-254 limits assumed): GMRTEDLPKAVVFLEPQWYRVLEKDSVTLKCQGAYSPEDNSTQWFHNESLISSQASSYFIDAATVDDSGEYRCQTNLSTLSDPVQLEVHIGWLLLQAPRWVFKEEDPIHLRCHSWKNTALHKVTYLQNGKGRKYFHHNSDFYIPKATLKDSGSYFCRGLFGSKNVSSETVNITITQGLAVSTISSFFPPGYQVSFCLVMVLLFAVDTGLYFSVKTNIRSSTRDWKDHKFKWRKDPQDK

B1: humanized antibody 102E9H10 (antibody, human IgG1, kappa, V domains shown)
VH: QIHLVQSGPELKKPGESVKISCKASGYTFTDYSMHWVRQAPGQGLKWMGWINTETGEPTYAQDFKGRFVFSLDTSVSTAYLQINSLKNEDTSTYYCTRNGYYVGYYAMDYWGQGTSVTVSS
VL: QIQLTQSPSFLSASPGERVTITCSASSSVIYIHWFQQKPGTAPKLWIYSTSYLASGVPSRFSGSGSGTSYTLTISRMEAEDFATYYCQQRRSYPFTFGGGTKLEIKR
With B1 the “CD303 ectodomain-binding capacity relative to chimeric antibody 102E9” value (CD303 ectodomain) was 80%.

B2: humanized antibody 102E9H9 (antibody, human IgG1, kappa, V domains shown)
VH: B1 VH with R38K, Q62D
VL: B1 VL
B2 was tested, and the “CD303 ectodomain-binding capacity relative to chimeric antibody 102E9” value (CD303 ectodomain) was 71%.

B3: humanized antibody 102E9H6 (antibody, human IgG1, kappa)
heavy: not shown
light: QIQLTQSPSFLSASPGERVTITCSASSSVIYIHWFQQKPGKAPKLWIYSTSYLASGVPSRFSGSGSGTEYTLTISSMEAEDFATYYCQQRRSYPFTFGGGTKLEIKRTVAAPSVFIFPPSDEQLKSGTASVVCLLNNFYPREAKVQWKVDNALQSGNSQESVTEQDSKDSTYSLSSTLTLSKADYEKHKVYACEVTHQGLSSPVTKSFNRGEC
With B3 the “CD303 ectodomain-binding capacity relative to chimeric antibody 102E9” value (CD303 ectodomain) was 73%.

B4: humanized antibody 102E9H7 (antibody, human IgG1, kappa)
heavy: not shown
light: B3 light
B4 was tested, and the “CD303 ectodomain-binding capacity relative to chimeric antibody 102E9” value (CD303 ectodomain) was 76%.

B5: chimeric antibody 104C12 (antibody, human IgG1, kappa)
heavy: not shown
light: DLQMTQTPSSLSASLGDRVTISCRASQDINNYLSWYQEKPDGTFKLLIYYTSRLHSGVPSRFSGSGSGTDYSLTVRNLEQEDIGTYFCQQGKTLPWTFGGGTKLEIRRTVAAPSVFIFPPSDEQLKSGTASVVCLLNNFYPREAKVQWKVDNALQSGNSQESVTEQDSKDSTYSLSSTLTLSKADYEKHKVYACEVTHQGLSSPVTKSFNRGEC
notes: Produced in YB2/0
In the case of B5, the “ADCC EC50, Fcγ chain-CD303 Jurkat target cells with NK cells” value (“ADCC EC50” below) [1] is reported as 0.214 ng/mL, the “ADCC Emax (% lysis), Fcγ chain-CD303 Jurkat target cells with NK cells” value (shortened to “ADCC Emax (% lysis)”) [1] is reported as 41.8 % lysis and the “Bmax (MFI)” value [2] is reported as 29 MFI. For the same binder, the EC50 [2] was 0.345 µg/mL, the “Bmax (MFI)” value [3] was 27.7 MFI and the EC50 [3] was 0.178 µg/mL. The IC50 (FcγRIIIa (CD16a) [4]) was 26.8 µg/mL.

B6: humanized antibody 122A2H5 (antibody, human IgG1, kappa)
heavy: not shown
light: DIQMTQSTSSLSASLGDRVTITCQASQDISNYLNWYQQKPDGTVKLLIYYTSRLHTGVPSRFSGSGSGTDYSLTISNLDQEDIATYYCQQGNTLPWTFGGGTKLEIKRTVAAPSVFIFPPSDEQLKSGTASVVCLLNNFYPREAKVQWKVDNALQSGNSQESVTEQDSKDSTYSLSSTLTLSKADYEKHKVYACEVTHQGLSSPVTKSFNRGEC
B6 was tested, and the “IC50 for IFN-α secretion from pDCs contained in PBMCs” value (shortened to “IC50 for IFN-α secretion”) [5] was 0.819 ng/mL.

B7: humanized antibody 122A2H10 (antibody, human IgG1, kappa, V domains shown)
VH: QVQLQQSGAEVVKPGASVKISCKGSGYTFTDYSMHWVRQAHAKSLEWIGVISTYYGDSNYNQKFKGKVTMTVDTSSSTAYMELSRLRSDDTAVYYCARNGNFYVMDYWGQGTLVTVSS
VL: DIQMTQSPSSLSASVGDRVTITCQASQDISNYLNWYQQKPDGTVKLLIYYTSRLHTGVPSRFSGSGSGTDYSLTISNLDQEDIATYYCQQGNTLPWTFGGGTKLEIKR
With B7 the “IC50 for IFN-α secretion” value [5] was 0.947 ng/mL.

B8: humanized antibody 122A2H15 (antibody, human IgG1, kappa, V domains shown)
VH: B7 VH with H41P, A42G, K43Q, S44G, T74K, R87T
VL: B7 VL with P8T, V15L, R53N, D79Q
B8: binds [6].

B9: humanized antibody 122A2H14 (antibody, human IgG1, kappa, V domains shown)
VH: B7 VH
VL: B7 VL with P8T, V15L, R53N, D79Q
B9: binds [6].

B10: humanized antibody 122A2H9 (antibody, human IgG1, kappa)
heavy: not shown
light: B6 light with T8P, L15V
For B10, the “IC50 for IFN-α secretion” value [5] was 0.911 ng/mL, the “IL-2 secretion by CD16 Jurkat cells: 50%, with ch122A2 = 1 (Mean)” value (FcγRIIIa (CD16a) [7]) was 0.73 ratio to ch122A2 and the “IL-2 secretion by CD16 Jurkat cells: 50%, with ch122A2 = 1 (experiment 2126 16 057)” value (FcγRIIIa (CD16a) [7]) was 0.66 ratio to ch122A2. For the same binder, the “IL-2 secretion by CD16 Jurkat cells: 50%, with ch122A2 = 1 (experiment 2126 16 059)” value (FcγRIIIa (CD16a) [7]) was 0.78 ratio to ch122A2 and the “IL-2 secretion by CD16 Jurkat cells: 50%, with ch122A2 = 1 (experiment 2126 16 066)” value (FcγRIIIa (CD16a) [7]) was 0.74 ratio to ch122A2.

B11: humanized antibody 122A2H7 (antibody, human IgG1, kappa, V domains shown)
VH: B7 VH with H41P, A42G, K43Q, S44G, T74K, R87T
VL: B7 VL with P8T, V15L
B11 was tested, and the “IC50 for IFN-α secretion” value [5] was 0.865 ng/mL.

B12: chimeric antibody 104E10 (antibody, human IgG1, kappa)
heavy: not shown
light: QIVLTQSPAIMSASPGEKVTMTCSASSSVIYMHWFQQKPGTSPKLWIYSTSNLASGVPARFSGSGSGTSYSLTISRMEAEDAATYYCQQRRSYPYTFGGGTKLEIKRTVAAPSVFIFPPSDEQLKSGTASVVCLLNNFYPREAKVQWKVDNALQSGNSQESVTEQDSKDSTYSLSSTLTLSKADYEKHKVYACEVTHQGLSSPVTKSFNRGEC
notes: Produced in YB2/0
In the case of B12, the “ADCC EC50” value [1] is reported as 8.28 ng/mL, the “ADCC Emax (% lysis)” value [1] is reported as 40.5 % lysis and the “Bmax (MFI)” value [2] is reported as 29.2 MFI. The EC50 [2] was 1.93 µg/mL, the “Bmax (MFI)” value [3] was 23.7 MFI and the EC50 [3] was 6.06 µg/mL. It also gave an IC50 (FcγRIIIa (CD16a) [4]) of 18.1 µg/mL.

B13: chimeric antibody 114D11 (antibody, human IgG1, kappa)
heavy: not shown
light: B12 light with M21I, I30F
notes: Produced in YB2/0
B13 was tested, and the “ADCC EC50” value [1] was 3.61 ng/mL, the “ADCC Emax (% lysis)” value [1] was 37.4 % lysis and the “Bmax (MFI)” value [2] was 30.1 MFI. For the same binder, the EC50 [2] was 1.7 µg/mL, the “Bmax (MFI)” value [3] was 24.7 MFI and the EC50 [3] was 3.98 µg/mL. The IC50 (FcγRIIIa (CD16a) [4]) was 45 µg/mL.
